Results reported in patent US20140178332A1 (published 2014).
Changes are numbered by the printed parent chain. Like-named read-outs stand apart in the source and are kept apart here.

B1: anti-IL-12p40 hybrid antibody 1A6.4 (antibody, human IgG1, kappa, L234A L235A, V domains shown)
VH: QVTLKESGPGILKPSQTLSLTCSFSGFSLSTSGMGVSWIRQPSGKGLEWLAHIWWDGDNYYNPSLKSQLTISKDTSRNQVFLRIATVDTADTATYYCARRTRVNYAMDYWGQGTSVTVSS
VL: EIVMTQSPATLSVSPGERATLSCKASQSVSNDVAWYQQKPGQAPRLLIYYASNRYTGIPARFSGSGSGTEFTLTISSLQSEDFAVYYCQQDYNSPWTFGGGTKVEIKR
notes: Hybrid: chimeric murine H chain paired with CDR-grafted L chain
B2: anti-IL-12p40 hybrid antibody 1A6.7 (antibody, human IgG1, kappa, L234A L235A, V domains shown)
VH: B1 VH
VL: DIVMTQSPDSLAVSLGERATINCKASQSVSNDVAWYQQKPGQPPKLLIYYASNRYTGVPDRFSGSGSGTDFTLTISSLQAEDVAVYYCQQDYNSPWTFGGGTKVEIKR
B3: chimeric anti-human IL-12p40 antibody 1D4-Chim (antibody, human IgG1, kappa, L234A L235A, V domains shown)
VH: QVTLKESGPGILQPSQTLSLTCSFSGFSLRKSVMGVSWIRQPSGKGLEWLAHIYWDDDKYYNPSLKSRLTISKDPSRNQVFLKITSVDTADAATYYCTRRGIRSAMDYWGQGTSVTVSS
VL: SVVMTQTPKFLLVSAGDRVTITCKASQSVSNDVAWYQQKPGQSPKLLIYYASNRYTGVPDRFTGSGYGTDFTFIISTVRAEDLAVYFCQQDYNSPWTFGGGTKLEIKR
B4: anti-IL-12p40 hybrid antibody 1A6.8 (antibody, human IgG1, kappa, L234A L235A, V domains shown)
VH: EVTLRESGPALVKPTQTLTLTCTFSGFSLSTSGMGVSWIRQPPGKALEWLAHIWWDGDNYYNPSLKSRLTISKDTSKNQVVLTMTNMDPVDTATYYCARRTRVNYAMDYWGQGTTVTVSS
VL: B3 VL with Y36F, I74T, R79Q
B5: chimeric anti-human IL-12p40 antibody 1A6-Chim (antibody, human IgG1, kappa, L234A L235A, V domains shown)
VH: B1 VH
VL: B3 VL with Y36F, I74T, R79Q
B6: anti-IL-12p40 hybrid antibody 1D4.4 (antibody, human IgG1, kappa, L234A L235A, V domains shown)
VH: EVTLRESGPALVKPTQTLTLTCTFSGFSLSKSVMGVSWIRQPPGKALEWLAHIYWDDDKYYNPSLKSRLTISKDTSKNQVVLTMTNMDPVDTATYYCARRGIRSAMDYWGQGTTVTVSS
VL: B3 VL
B7: murine anti-human IL-12p40 monoclonal antibody 3G7 (antibody, V domains shown)
VH: QVQLQQSGAELMKPGASVKISCKATGYTFNDYWIEWVKQRPGHGLEWIGGFSHGSGSTNYNEKFKGKATFTADSSSNTAYMQLSSLTSEDSAVYYCARRRFRGMDYWGQGTSVTVSS
VL: B3 VL with V2I, I74T, S76T, R79Q, N93S, T97S
notes: Murine mAb
B8: anti-IL-12p40 hybrid antibody 1A6.3 (antibody, human IgG1, kappa, L234A L235A, V domains shown)
VH: B4 VH with R5K, A10V, Q16E, F24V, N78S
VL: B3 VL with Y36F, I74T, R79Q
B9: anti-IL-12p40 hybrid antibody 1D4.5 (antibody, human IgG1, kappa, L234A L235A, V domains shown)
VH: B3 VH
VL: B2 VL

What was measured:
[1] = molecular target: T1, recombinant purified human IL-12 p70 (human, UniProt P29459 23-219); assay: SPR (BIAcore) as in Example 1.1.B
T1 construct: Disulfide-linked heterodimer of p35 and p40; also called hIL-12; Hu IL-12
T1 sequence 1: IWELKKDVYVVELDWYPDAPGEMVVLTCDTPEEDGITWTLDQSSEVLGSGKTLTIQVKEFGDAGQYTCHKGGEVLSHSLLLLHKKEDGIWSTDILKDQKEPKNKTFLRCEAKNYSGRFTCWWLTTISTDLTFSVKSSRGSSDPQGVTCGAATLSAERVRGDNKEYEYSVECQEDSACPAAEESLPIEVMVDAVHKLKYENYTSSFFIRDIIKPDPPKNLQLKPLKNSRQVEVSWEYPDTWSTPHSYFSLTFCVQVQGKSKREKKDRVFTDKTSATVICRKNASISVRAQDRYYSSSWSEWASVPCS
T1 sequence 2: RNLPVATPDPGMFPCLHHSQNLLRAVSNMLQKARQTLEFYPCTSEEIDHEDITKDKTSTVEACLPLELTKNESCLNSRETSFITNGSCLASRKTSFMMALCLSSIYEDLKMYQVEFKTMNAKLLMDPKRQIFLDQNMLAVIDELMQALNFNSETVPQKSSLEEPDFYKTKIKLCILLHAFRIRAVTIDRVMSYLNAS
Experimental: (§1) The BIACORE assay (Biacore, Inc, Piscataway, N.J.) determines the affinity of antibodies with kinetic measurements of on-, off-rate constants. Binding of antibodies to recombinant purified human IL-12 p70 or recombinant purified human IL-12 p40 were determined by surface plasmon resonance-based measurements with a Biacore® 3000 instrument (Biacore® AB, Uppsala, Sweden) using running HBS-EP (10 mM HEPES [pH 7.4], 150 mM NaCl, 3 mM EDTA, and 0.005% surfactant P20) at 25° C. All chemicals were obtained from Biacore® AB (Uppsala, Sweden) or otherwise from a different source as described in the text. Approximately 5000 RU of goat anti-mouse IgG, (Fcγ), fragment specific polyclonal antibody (Pierce Biotechnology Inc, Rockford, Ill.) diluted in 10 mM sodium acetate (pH 4.5) was directly immobilized across a CM5 research grade biosensor chip using a standard amine coupling kit according to manufacturer's instructions and procedures at 25 μg/ml. Unreacted moieties on the biosensor surface were blocked with ethanolamine. Modified carboxymethyl dextran surface in flowcell 2 and 4 was used as a reaction surface. Unmodified carboxymethyl dextran without goat anti-mouse IgG in flow cell 1 and 3 was used as the reference surface. For kinetic analysis, rate equations derived from the 1:1 Langmuir binding model were fitted simultaneously to association and dissociation phases of all eight injections (using global fit analysis) with the use of Biaevaluation 4.0.1 software. Purified antibodies were diluted in HEPES-buffered saline for capture across goat anti-mouse IgG specific reaction surfaces. Mouse antibodies to be captured as a ligand (25 μg/ml) were injected over reaction matrices at a flow rate of 5 μl/min. The association and dissociation rate constants, kₒₙ (unit M⁻¹ s⁻¹) and koff (unit s⁻¹) were determined under a continuous flow rate of 25 μl/min. Rate constants were derived by making kinetic binding measurements at ten different antigen concentrations ranging from 10-200 nM. The equilibrium dissociation constant (unit M) of the reaction between mouse antibodies and recombinant purified human IL-12 p70 or recombinant purified human IL-12 p40 was then calculated from the kinetic rate constants by the following formula: KD=koff/kₒₙ. Binding is recorded as a function of time and kinetic rate constants are calculated.

[2] = molecular target: T1, recombinant purified human IL-12 p70; assay: cell-based or functional assay
[3] = molecular target: T2, recombinant purified cyno IL-12 p70 (cynomolgus monkey); assay: cell-based or functional assay
T2 chain 1: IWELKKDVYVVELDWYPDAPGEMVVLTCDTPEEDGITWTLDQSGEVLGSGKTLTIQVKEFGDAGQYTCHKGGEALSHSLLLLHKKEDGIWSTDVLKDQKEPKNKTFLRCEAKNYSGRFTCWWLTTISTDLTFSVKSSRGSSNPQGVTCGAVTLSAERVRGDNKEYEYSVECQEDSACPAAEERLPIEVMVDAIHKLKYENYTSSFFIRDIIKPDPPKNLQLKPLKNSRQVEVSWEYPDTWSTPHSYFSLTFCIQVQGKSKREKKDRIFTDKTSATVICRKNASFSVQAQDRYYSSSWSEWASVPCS
T2 chain 2: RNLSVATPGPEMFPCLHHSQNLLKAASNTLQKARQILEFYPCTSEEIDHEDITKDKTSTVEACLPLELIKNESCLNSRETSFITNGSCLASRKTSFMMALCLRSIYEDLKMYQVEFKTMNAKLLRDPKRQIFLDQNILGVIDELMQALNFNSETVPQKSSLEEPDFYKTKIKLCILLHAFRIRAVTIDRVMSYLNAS

[4] = molecular target: T1, recombinant purified human IL-12 p70; assay: cell-based or functional assay; remark: listed apart in the source
[5] = molecular target: T2, recombinant purified cyno IL-12 p70; assay: cell-based or functional assay
[6] = molecular target: T1, recombinant purified human IL-12 p70; assay: cell-based or functional assay; remark: listed apart in the source
[7] = molecular target: T2, recombinant purified cyno IL-12 p70; assay: cell-based or functional assay
[8] = molecular target: T3, recombinant purified mouse IL-12 (Peprotech) (mouse, UniProt P43432 23-335; P43431 23-215); assay: direct ELISA, plate coated with 5 ug/ml recombinant mouse IL-12
T3 construct: Bought reagent; also called mu IL-12; murine IL-12
T3 sequence (looked up) 1: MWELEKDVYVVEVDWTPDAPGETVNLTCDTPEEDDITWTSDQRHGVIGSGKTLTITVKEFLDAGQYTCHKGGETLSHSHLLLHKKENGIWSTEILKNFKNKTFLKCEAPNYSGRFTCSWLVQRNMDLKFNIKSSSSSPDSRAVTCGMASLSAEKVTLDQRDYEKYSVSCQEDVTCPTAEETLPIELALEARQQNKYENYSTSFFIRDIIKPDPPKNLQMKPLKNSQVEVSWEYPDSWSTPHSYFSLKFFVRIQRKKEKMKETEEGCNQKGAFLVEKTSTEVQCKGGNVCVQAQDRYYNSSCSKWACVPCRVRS
T3 sequence (looked up) 2: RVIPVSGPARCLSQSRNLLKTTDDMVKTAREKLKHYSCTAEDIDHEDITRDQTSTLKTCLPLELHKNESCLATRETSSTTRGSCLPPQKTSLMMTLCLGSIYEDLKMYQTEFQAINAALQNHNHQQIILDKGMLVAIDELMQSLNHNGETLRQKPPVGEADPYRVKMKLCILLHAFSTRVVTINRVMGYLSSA
Experimental: To determine whether the ten monoclonal antibodies described above recognize murine IL-12, two ELISAs were set up. First, a direct ELISA was set up by directly coating ELISA plates with 5 ug/ml of recombinant purified mouse IL-12 (Peprotech). Murine-anti-human IL-12 p40 mAbs were prepared at various concentrations ranging from 3 to 200 ng/ml in PBS containing 0.1% BSA (Sigma, St. Louis, Mo.). 50 μl of each antibody dilution was added to the coated ELISA plate and incubated for 1 hour at room temperature. Wells were washed 3 times with PBS containing 0.05% Tween-20. Anti-mouse IgG-HRP antibody (R&D #HAF007, Minneapolis, Minn.) was diluted 1:2000 in PBS containing 0.1% BSA; 50 ul/well was added and the plates incubated for 1 hour at room temperature. Fifty microliters of TMB solution (Sigma # T0440, St. Louis, Mo.) was added to each well and incubated for 10 minutes at room temperature. The reaction was stopped by addition of 2N sulphuric acid. Plates were read spectrophotmetrically at a wavelength of 450 nm.

[9] = molecular target: T1, recombinant purified human IL-12 p70; assay: SPR (Biacore), mAb captured on anti-mouse IgG Fc, IL-12 p70 as analyte
Experimental: as §1

| Binder | Kd [1] | koff [1] | kon [1] | Av. IC50 (nM) huIL-12, PHA blast assay [2] | Av. IC50 (nM) Cyno IL-12, PHA blast assay [3] | other results |
| --- | --- | --- | --- | --- | --- | --- |
| B1 | 1 nM | 0.00011 s⁻¹ | 110000 M⁻¹ s⁻¹ | 2.1 nM | 1.2 nM | – |
| B2 | – | – | – | 0.29 nM | 0.35 nM | – |
| B3 | – | – | – | – | – | Average IC50 (nM) Human IL-12, PHA blast IFN-γ assay [4]: 0.021 nM; Average IC50 (nM) Cyno IL-12, PHA blast IFN-γ assay [5]: 0.07 nM |
| B4 | – | – | – | 0.08 nM | 0.06 nM | – |
| B5 | – | – | – | – | – | Average IC50 (nM) Human IL-12, PHA blast IFN-γ assay [4]: 0.021 nM; Average IC50 (nM) Cyno IL-12, PHA blast IFN-γ assay [5]: 0.02 nM |
| B6 | 0.074 nM | 2.1e-05 s⁻¹ | 280000 M⁻¹ s⁻¹ | 0.64 nM | 1.1 nM | – |
| B7 | – | – | – | – | – | Average IC50 (nM) Human IL-12, PHA blast IFN-γ assay [6]: 0.15 nM; Average IC50 (nM) Cyno IL-12, PHA blast IFN-γ assay [7]: 0.35 nM; binding result [8]: no binding (tested: 3 to 200 ng/ml mAb); Kd [9]: 0.047 nM; koff [9]: 3.8e-05 s⁻¹; kon [9]: 820000 M⁻¹ s⁻¹ |
| B8 | 0.14 nM | 2.6e-05 s⁻¹ | 190000 M⁻¹ s⁻¹ | 0.068 nM | 0.049 nM | – |
| B9 | 0.11 nM | 3.1e-05 s⁻¹ | 300000 M⁻¹ s⁻¹ | 0.053 nM | 0.11 nM | – |
